This note sets out measurements from the nanobody polyreactivity screen of Harvey et al. (2022).

This series in a line: yeast display, Sf9 membrane polyspecificity reagent, FACS + sequencing; frameworks hold sequencing errors. In outline:
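A synthetic nanobody library was expressed on Saccharomyces cerevisiae BJ5465 by galactose induction for 36–48 hours. The library was stained for 1 hour at 4 °C with 10% biotinylated, detergent-solubilized Sf9 membrane reagent and enriched with streptavidin microbeads before FACS. Low and high (top ~1%) gates were set on anti-HA fluorescence for expression and streptavidin fluorescence for reagent binding, and each polyreactivity label reflects the gate of origin.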
For the sequence “QVQLVESGGGLVQAGGSLRLSCAFYYGMGWYRQAPGKERELVAAITLGGGSTYYADSVKGRFTISRDNAKNTVYLQMNSLKPEDTAVYYCNVTDVTEPSLIDGYYWGQGTQVTVSS”, the “polyreactivity (PSR sort gate)” value is “low polyreactivity”.
As to “QVQLVESGGGLVQAGGSLRLSCAASGRIFVQYDMGWYRQAPGKERELVAAINDSGDITYYADSVKGRFTISRDNAKNTVYLQMNSLRPEDTAVYYCAASAAYYGFYKSVTYDYWGQGTQVTVSS”, the “polyreactivity (PSR sort gate)” value was “low polyreactivity”.
As to “QVQLVESGGGLVQAGGSLRLSCAASGRTFDLYAMGWYRQAPGKERELVARITNIDDSTYYADSVKGRFTISRDNAKNTVYLQMNSLKPEDTAVYYCNAASYSRGPARYDYWGQGTQVTVSS”, the “polyreactivity (PSR sort gate)” value is on record as “high polyreactivity”.
The same measure for “QVQLVESGGGLVQAGGSLRLSCAASGRTFRPYAMGWYRQAPGKERELVAAISSRGSSTYYADSVKGRFTISRDNAKNTVYLQMNSLKPEDTAFYYCAAEGSVGLYGLIMHYWGQGTQVTVSS”: “high polyreactivity”; for “QVQLVESGGGLVQAGGSLRLSCAASGFIFRTYAMGWYRQAPGKERELVAAITYSAGSTYYADSVKGRFTISRDNAKNTVYLQMNSLKPEDTAVYYCNVRKTWYGYSVTGRYDYWGQGTQVTVSS”: “low polyreactivity”.
Then “QVQLVESGGGLVQAGGSLRLSCAASGLNFYRNAMGWSRQAPGKERELVAAISASGGRTYYADSVKGRFTISRDNAKNTVYLPMNSLKPEDTAVYYCAAKSLWLSMDYWGQGTQVTVSS”, with “high polyreactivity”; and “QVQLVESGGGLVQAGGSLRLSCAASGLTFPYYVMGWYRQAPGKERELVAAISSSGGSTYYADSVKGRFTISRDNAKNTVYLQMNSLKPEDTAVYYCNALGHFSKIATYDYWGQGTQVTVSS”, with “low polyreactivity”; and “QVQLVESGAGLVQARGSLRLSCAASGIILYVNAMGWYRQAPGKERELVAAISWGGGSTYYADSVKGRFTISRDNAKNNVYLQMNSLKPEDTAVYYCAAEFWSGYPTYTYDFWGQGTQVTVSS”, with “low polyreactivity”.
“QVQLVESGGGLVQAGGSLRLSCADSGSTFEANAMGWYRQAPGKERELVAAISSGGRTYYADSEKGRFTISRDNAKNTVYLKRNSLKPEDTAVYYCAAYVRRGFDWGQGTQVTVSS”: the “polyreactivity (PSR sort gate)” value is listed as “high polyreactivity”.
Then “QVQLLESGGGLVQARGSLRLSCAASGRNFVPYVMGWYRQAPGKERELVASISDSDTSTYYADSVKGRFTISRDNAKNTVYLQMNSLKPEDTAVYYCNVDYWGQGTQVTVSS”, with “low polyreactivity”; and “HVQLVESGGGLVQAGGSLRLSCAASGSTFGRYVMGWHRQAPGKERELVAAISKNAGSTYYADSVKGRFTISRDNAKNTVYLKMASLKPEDTAVYYCAADWRTKGYDSLGQGTQVTVSS”, with “high polyreactivity”.
Then “QVQLVESGGRLVQAGGSLRLSCAASGRIFNRYAMGWYRQAPGKERELVAAITRGGSTYYADSVKGRFTMSRDNAKITVYLQMNSLKPEDSAVYYCAGRVGYPYYYWGQGTQVTVSS”, with “high polyreactivity”.
The same measure for “QLQLVESGGGLVQAGGSLRLSSAASGFTFSIYAMGCYRQAPGKERELVAAINFGGGGTYYADSVKGRFTSSRDIAKNTVYLQMNSLKAEVTAVYDCAADYCYDYYSTEYDYWGQGTQVTVSS”: “low polyreactivity”; for “QVQLVESGGGLVQAGGSLRLSCAASGGIFSWYAMGWYRQAPGKERELVAAISWSGSRTYYADSVKGRFTISRDNAKNTVYLQMNCLKPEDTAVYYCAADYIFRRYPVGGIYDYDYWGQGTQVTVSS”: “high polyreactivity”; for “QVQLQESGGGLVQAGGCLRLSCAASGTIFDPDYMGWYHQAPGKERELVASISLGRITYYADSVKGRFTINRDNAKNTVYLQMNSLKPEDTAVYYCAVRVETIYYYSYWGQGTQVTVSS”: “high polyreactivity”.
Turning to “QLQLVESGGGLVQAGGSLRLSCAASGIIFYWNAMGWYRQAPGKEREFVASISGSGGSTYADSVKGRFTISRDNAKNTVYLQMNSLKPEDTAVYYCAADFSNVGVQHDYYWGQGTQVTVSS”, the “polyreactivity (PSR sort gate)” value is reported as “high polyreactivity”.
Then “QVQLVESGGGLVQAGGSLRLSCAASGGIFHYYAMGWYRQAPGKERELVAAISWNTGSTYYADSVKGRFTISRDNAKNTVYLQMNSLKPVDTAVYYCAASYRSPWLRYDYWGQGTQVTVSS”, with “high polyreactivity”; and “HVQLVESGGGLVQAGGSLRLSCAHSGIIFRTNAMGWYRQAPGKEREFVAAISAGATRKYYADSVKGRFTISRDTAKNTVYLQMNSLKPEDTAVYYCAAASGYDYWGQGTQVTVSS”, with “high polyreactivity”.
The same measure for “QVQLVESGGGLVQAGGSLRLSCAASGIIFLENAMGWFRQAPGKESELVAGINGGGRTDYADSVKGRFTISRDNAKHTVYLQMNSLKPEDTAVYYCAAESSWYSPDVNYCGQGTQVTVSS”: “low polyreactivity”; for “QVQLQESGGGLVQAGGTITLGYYMGWYRQAPGKEREFVAGIDTGAITYYADSVKGRFTNSRDNAKNTVYLQMNSLKPEDTAVYYCAAIQTHTYAHSYCGQGTQVTVSS”: “high polyreactivity”; for “QVQLVESGGGLVQAGGSLRLSCAASGIIFGYYAMAWYRQAPGTERELVAAITSGASTDYADSVKGRFTISRDNAKNNVYLQMNSLKPEDTAVYYCNADTSASTYTFPFDYWGQGTQVTVSS”: “low polyreactivity”.
The same measure for “QVQLVETGGGLVQAGGSLRLICAASGSIFQGNVMGWYRQAPGKERELVAAISSGGRTYYADSVKGRFTISRDNAKNTVYLQMNSLKPEDTAVYYCAASWLTSYAYIMYYWGQGTQVTVSS”: “high polyreactivity”; for “QVQIVESGGVLVQAGGSLRLSCAASGITLRVYVMGWYRQAPGKERELVAAITSRGDRTYYADSVKGRSTISRDNAKNTVYLQMNSLKPEDTAVYDCAARYYSYPPGLSQTRLTYYYWGQGTQVTVSS”: “high polyreactivity”; for “QVQLVESGGGLVQAGGSLRLSCAAYGRIFGPYASGWYIQAPGKERELVAAITLSGGGTYADSVKGRFTISRDNAKNTVYLQMNSLKPEDTAVYYCAADSYRLLNSDTGEFEYNYWGQGSQVTVSS”: “low polyreactivity”.
Regarding “QVQLVESGGGLVQAGGSLRLSCAASGSIFEPYAMGGYRQAPWTERELVAAIRVSGGSTYYADSVKGRFTISRDNAKNTVYLQMNSLKPEDTAVYYCGPDWWSRYYYWGQGTQVTVSS”, the “polyreactivity (PSR sort gate)” value is reported as “high polyreactivity”.
In the case of “QVQLVESGGGLVQAGGSLRFSCAASGINIWTNVMGWYIQAPRKESEFVAAISRSGGSTYYADSVKGSFTISRDNAKNTVYLQMISLKPEDTAVYYCAARWSYSVQKFDYWGQGTQLTVSS”, the “polyreactivity (PSR sort gate)” value is given as “high polyreactivity”.
The same measure for “LVQLQESGGGLVQAGGSLRLSCAASGTISPGGYMGWYRQAPGKERELVASINVGGSTNYADSVKGRFTISRDNAKNTVYLQMNSLKQEDNAVYYCAVWGRNRLQLSYWGQGTQVTVSS”: “low polyreactivity”.
As for “QVQLVESGGGLVQAGGSLRLSCAASGFTFARYAMGWYRQAPGKERELVAAITSGSSTYYADSVKGRFTISRDNAKNTVYLQMNSLKPEDTAVYYCAARSFLQSYYYWGQGTQVTVSS”, the “polyreactivity (PSR sort gate)” value is “high polyreactivity”.
Then “QVKLVESGGGLVQAGGSLRLTCAAYGFTFAGYTLGCYRQAPGKERELVAAITSSGGSTYYADYVKGRFTISRDNAKNTVYLQMNSLKPEDTAVYYCAARSHSTYYYWGQGTQVTVSS”, with “high polyreactivity”.
Then “QVQLVESGGGLVQAGGSLRLSCAASGLTFRSYTMGWYRQAPGTERELVAAISSGGSTYYADSVKGRFTISRDNAKNTVYLQMNSLKPEDTAVYYCAAPRGHGKYYSWGQGTQVTVSS”, with “high polyreactivity”; and “QFQLVESGGGLVQAGGSLRLICAASGFIFRTYAMGWYRQAPGKAREFVAAITFSAGSTYYADSVKGRFTISRDNAKNTVYLQMNSLLPEDSAVYDCNVLKSWYGYSVTGRYVYWGQGTQVTVSS”, with “low polyreactivity”.
The same measure for “QVQLVESGGGLVQAGGSLRLSCAASGSTFGTNAMGWYRQAPGKERELVAAISVSSTYYADSVKGRFTISRDNAKNTVYLQMNSLKPEDTAVYYCAADNSYGYRLDYWGQGTQVTVSS”: “low polyreactivity”.
As for “QVQLVESGGGLVQAGGSLRLSCAASGRIFRWYTMGWYRQAPGKEREFVAAITWSDTSTSYADSVKGRFTISRDNAKKTVYLQMNSLKPEDTAVYYCNAATRSSVTFGWYIEYDYWGQGTQVTVSS”, the “polyreactivity (PSR sort gate)” value was “low polyreactivity”.
Then “QVQLVESGGGLVQAGGSLRLSCAASGFIFVAYAMGWYRQAPGKERELVATIDSSGGTTYYADSVKGRFTISRDNAKNTVYLQMNSLKPEDTAVYYCNAPIYPYREFGRDYWGQGTQVTVSS”, with “low polyreactivity”.
Then “QVQLVESGGGLVQAGGSLRLSCAASGGTFLNYAMGWYRQAPGKECELVAVITNGDSTYYADSVKGRFTISRDNAKNTVYLQMNSLKPEDTAVYYCNADDWGQYNIWYDYWGQGTQVTVSS”, with “low polyreactivity”; and “QVQLVESGGGLVQAGGSLRLSCAASGFTFGTNAMGWYRQAPGKERELVATISARGARTNYADSVKGRFTISRDNAKNTVYLQMNSLKPEDTAVYYCAADPGPHRYSYDYWGQGTQVTVSS”, with “high polyreactivity”.
Then “QVQLVESGGGLVQAGGSLRLSCAASGRTFWYYAMGWYRQAPGTERELVAAITYRGTRTYADSVKGRFTISRDNAKNTVYLQMNSQKPEDTPVYYCAKDVGYRYSGTMDYWGQGTQVTVSS”, with “high polyreactivity”.
As to “QVQLVESGGGLVQAGGSHRLSCAASGRTLGGYAMGWSRQAPGKERELVAAISYSGGSTYYADSVKGRFTISRDNAKNTVYLQMNSLKAEFTAVYYCARDYSWYYYGSQLFAHDYWGQGTQVTVSS”, the “polyreactivity (PSR sort gate)” value is listed as “low polyreactivity”.
The same measure for “QVQLVESGGGLVQAGGSLRLSCAASGRTFYYYAMGWYRPAPGKERELVAAITSRGGSTYYADSVTGRFTISRDNAKNTVYLQMNSLKPEDTAVYYCAAEYWSTYWQSELDYWGQGTQVTVSS”: “high polyreactivity”.
Turning to “QVQLVESGGGLVQAGGSLLLSCAASGRTFRPYSMGWYRQAPGKERELVAAITRSGGSTYYADSVKGRFTISRDNEKNTVYLQMNSLKPEDTAVYYCAAYNTYSDTYDYWGQGTQVTVSS”, the “polyreactivity (PSR sort gate)” value was “low polyreactivity”.
The same measure for “QVQLVESGGGLVQAGGSLRLSCAASGSTYGIYAMGWYRQAPGKERELVAAISSGGSTNYADSVKGRFTISRDNAKNTVYLQMNSLKPEDTAVYYCAVESVYEYGGYVDSAYDYWGQGTQVTVSS”: “low polyreactivity”.
